For this data set, the system named is Escherichia coli TOP10. Nature of the data set: shrunken log2 fold change of peptide-encoding DNA abundance (4.5 h post-induction vs induction); higher = less antimicrobial activity (less host growth inhibition). The settings on record: time post-induction: 4.5 h; library: site-saturation at positions 5, 18, 19, 20.
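Note: peptides expressed intracellularly from a pBAD plasmid library in pooled LB shake-flask culture, induced with 0.3% L-arabinose, DNA abundance read by NGS, three biological replicates, DESeq2 with apeglm shrinkage.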

With RRIRQRPPRLPRPRPRPLLMPRP, the “shrunken log2 fold change” value turned out to be 0.181.

RRIRQRPPRLPRPRPRPDARPRP: the “shrunken log2 fold change” value was 0.422.

Regarding RRIRARPPRLPRPRPRPWLHPRP, the “shrunken log2 fold change” value turned out to be 0.144.

On to RRIRMRPPRLPRPRPRPASPPRP, for which the “shrunken log2 fold change” value was determined as 0.14.

For RRIRTRPPRLPRPRPRPGKWPRP, the “shrunken log2 fold change” value was -0.192.

As to RRIRERPPRLPRPRPRPYRTPRP, the “shrunken log2 fold change” value was -1.15.

For RRIRDRPPRLPRPRPRPWILPRP, the “shrunken log2 fold change” value was -0.201.

For the sequence RRIRFRPPRLPRPRPRPVTFPRP, the “shrunken log2 fold change” value was -0.213.

As to RRIRARPPRLPRPRPRPLSAPRP, the “shrunken log2 fold change” value amounted to 0.636.

Take RRIRERPPRLPRPRPRPGSMPRP: the “shrunken log2 fold change” value was -0.343.

In the case of RRIRQRPPRLPRPRPRPMTPPRP, the “shrunken log2 fold change” value came out at 0.126.

As for RRIRNRPPRLPRPRPRPMYSPRP, the “shrunken log2 fold change” value was -0.479.

Turning to RRIRERPPRLPRPRPRPDAYPRP, the “shrunken log2 fold change” value was -0.532.

For the sequence RRIRYRPPRLPRPRPRPTYGPRP, the “shrunken log2 fold change” value was -0.196.

RRIRTRPPRLPRPRPRPMETPRP: the “shrunken log2 fold change” value was 0.0774.

RRIRIRPPRLPRPRPRPRECPRP: the “shrunken log2 fold change” value is 0.146.

RRIRFRPPRLPRPRPRPPLIPRP: the “shrunken log2 fold change” value is -0.182.

On to RRIRLRPPRLPRPRPRPMRIPRP, for which the “shrunken log2 fold change” value is 0.269.

On to RRIRLRPPRLPRPRPRPMIPPRP, for which the “shrunken log2 fold change” value is -0.0974.

For RRIRNRPPRLPRPRPRPWNGPRP, the “shrunken log2 fold change” value is -0.368.

In the case of RRIRYRPPRLPRPRPRPATGPRP, the “shrunken log2 fold change” value was determined as 0.337.

On to RRIRWRPPRLPRPRPRPAVQPRP, for which the “shrunken log2 fold change” value amounted to 0.792.

As for RRIRDRPPRLPRPRPRPHLKPRP, the “shrunken log2 fold change” value stood at 0.143.

RRIRERPPRLPRPRPRPYGAPRP: the “shrunken log2 fold change” value was -0.569.

As to RRIRARPPRLPRPRPRPTHEPRP, the “shrunken log2 fold change” value amounted to 0.622.

In the case of RRIRNRPPRLPRPRPRPNCWPRP, the “shrunken log2 fold change” value is 0.241.

For RRIRWRPPRLPRPRPRPLAKPRP, the “shrunken log2 fold change” value is 0.499.

Regarding RRIRDRPPRLPRPRPRPPWYPRP, the “shrunken log2 fold change” value is -0.0741.

Consider RRIRMRPPRLPRPRPRPMCQPRP, for which the “shrunken log2 fold change” value was determined as 0.00866.

With RRIRHRPPRLPRPRPRPGYPPRP, the “shrunken log2 fold change” value is -0.0459.

RRIRIRPPRLPRPRPRPDPCPRP: the “shrunken log2 fold change” value was -0.224.

Consider RRIRCRPPRLPRPRPRPNGYPRP, for which the “shrunken log2 fold change” value was -0.122.

Take RRIRYRPPRLPRPRPRPVNYPRP: the “shrunken log2 fold change” value was -0.458.

Regarding RRIRIRPPRLPRPRPRPRCRPRP, the “shrunken log2 fold change” value is -0.164.

For the sequence RRIRVRPPRLPRPRPRPKWCPRP, the “shrunken log2 fold change” value worked out at 0.289.

Regarding RRIRCRPPRLPRPRPRPHMQPRP, the “shrunken log2 fold change” value was -0.322.

Regarding RRIRDRPPRLPRPRPRPHYSPRP, the “shrunken log2 fold change” value is -0.16.

Consider RRIRHRPPRLPRPRPRPMLRPRP, for which the “shrunken log2 fold change” value was -0.0571.

Regarding RRIRERPPRLPRPRPRPWPAPRP, the “shrunken log2 fold change” value was found to be 0.238.

For the sequence RRIRQRPPRLPRPRPRPQQNPRP, the “shrunken log2 fold change” value was -0.0678.

Take RRIRMRPPRLPRPRPRPKMVPRP: the “shrunken log2 fold change” value was 2.27.

Consider RRIRKRPPRLPRPRPRPQASPRP, for which the “shrunken log2 fold change” value worked out at 0.353.

Consider RRIRNRPPRLPRPRPRPMDTPRP, for which the “shrunken log2 fold change” value is -0.141.

In the case of RRIRWRPPRLPRPRPRPEGEPRP, the “shrunken log2 fold change” value was found to be 1.27.

As to RRIRQRPPRLPRPRPRPWCNPRP, the “shrunken log2 fold change” value was -0.00865.

Turning to RRIRCRPPRLPRPRPRPTAYPRP, the “shrunken log2 fold change” value is -0.137.

Take RRIRRRPPRLPRPRPRPQMRPRP: the “shrunken log2 fold change” value worked out at 1.05.

As for RRIRGRPPRLPRPRPRPHTAPRP, the “shrunken log2 fold change” value was 0.149.

Turning to RRIRLRPPRLPRPRPRPNSDPRP, the “shrunken log2 fold change” value was -0.2.

In the case of RRIRQRPPRLPRPRPRPRTWPRP, the “shrunken log2 fold change” value is -0.182.

For RRIRWRPPRLPRPRPRPYHGPRP, the “shrunken log2 fold change” value is -0.327.

On to RRIRNRPPRLPRPRPRPVLNPRP, for which the “shrunken log2 fold change” value is -0.261.

RRIRNRPPRLPRPRPRPEQDPRP: the “shrunken log2 fold change” value came to 0.0235.

Turning to RRIRCRPPRLPRPRPRPPEDPRP, the “shrunken log2 fold change” value turned out to be 0.754.

In the case of RRIRFRPPRLPRPRPRPEIQPRP, the “shrunken log2 fold change” value worked out at 0.0158.

Regarding RRIRDRPPRLPRPRPRPDRMPRP, the “shrunken log2 fold change” value is -0.00945.

In the case of RRIRMRPPRLPRPRPRPWQIPRP, the “shrunken log2 fold change” value is -0.224.

Take RRIRHRPPRLPRPRPRPHFHPRP: the “shrunken log2 fold change” value is -0.648.

On to RRIRKRPPRLPRPRPRPERSPRP, for which the “shrunken log2 fold change” value was determined as 0.245.

As for RRIRYRPPRLPRPRPRPNIIPRP, the “shrunken log2 fold change” value is -1.01.

For RRIRGRPPRLPRPRPRPEIGPRP, the “shrunken log2 fold change” value was 1.92.

Regarding RRIRDRPPRLPRPRPRPKFSPRP, the “shrunken log2 fold change” value was -0.023.

As to RRIRLRPPRLPRPRPRPDIDPRP, the “shrunken log2 fold change” value stood at 0.0249.

Take RRIRDRPPRLPRPRPRPYTVPRP: the “shrunken log2 fold change” value is -0.00865.

As for RRIRVRPPRLPRPRPRPKDSPRP, the “shrunken log2 fold change” value is -0.327.

For the sequence RRIRFRPPRLPRPRPRPAPHPRP, the “shrunken log2 fold change” value worked out at 0.442.

As to RRIRERPPRLPRPRPRPTWCPRP, the “shrunken log2 fold change” value was determined as 3.3.

For RRIRNRPPRLPRPRPRPLRAPRP, the “shrunken log2 fold change” value worked out at 0.672.

For RRIRYRPPRLPRPRPRPHAFPRP, the “shrunken log2 fold change” value was 0.0566.

As for RRIRSRPPRLPRPRPRPHWWPRP, the “shrunken log2 fold change” value came out at 0.359.

On to RRIRPRPPRLPRPRPRPAAIPRP, for which the “shrunken log2 fold change” value was determined as 0.0249.

RRIRKRPPRLPRPRPRPGPFPRP: the “shrunken log2 fold change” value is 0.56.

In the case of RRIRIRPPRLPRPRPRPKTRPRP, the “shrunken log2 fold change” value was -0.117.

As to RRIRFRPPRLPRPRPRPHWNPRP, the “shrunken log2 fold change” value is -0.653.

For RRIRGRPPRLPRPRPRPLTFPRP, the “shrunken log2 fold change” value was determined as 0.077.

RRIRYRPPRLPRPRPRPCSCPRP: the “shrunken log2 fold change” value is -0.155.

In the case of RRIRYRPPRLPRPRPRPMMQPRP, the “shrunken log2 fold change” value is -1.94.

Consider RRIRIRPPRLPRPRPRPQVVPRP, for which the “shrunken log2 fold change” value was -0.0262.

For RRIRMRPPRLPRPRPRPPNYPRP, the “shrunken log2 fold change” value turned out to be 0.0891.

In the case of RRIRPRPPRLPRPRPRPSAIPRP, the “shrunken log2 fold change” value was -0.32.

With RRIRTRPPRLPRPRPRPEGPPRP, the “shrunken log2 fold change” value worked out at 0.285.

In the case of RRIRKRPPRLPRPRPRPYFQPRP, the “shrunken log2 fold change” value was -0.265.

RRIRDRPPRLPRPRPRPMGDPRP: the “shrunken log2 fold change” value stood at 0.25.

With RRIRKRPPRLPRPRPRPTIFPRP, the “shrunken log2 fold change” value amounted to 0.2.

As for RRIRMRPPRLPRPRPRPYFMPRP, the “shrunken log2 fold change” value is -0.898.

With RRIRHRPPRLPRPRPRPHPIPRP, the “shrunken log2 fold change” value was -0.107.

As for RRIRQRPPRLPRPRPRPWEPPRP, the “shrunken log2 fold change” value amounted to 0.106.

RRIRKRPPRLPRPRPRPHVTPRP: the “shrunken log2 fold change” value was -0.0241.

Turning to RRIRKRPPRLPRPRPRPNYCPRP, the “shrunken log2 fold change” value is -0.0369.

For RRIRPRPPRLPRPRPRPAHHPRP, the “shrunken log2 fold change” value is 0.207.

For RRIRGRPPRLPRPRPRPSFYPRP, the “shrunken log2 fold change” value was 0.00205.

On to RRIRLRPPRLPRPRPRPWGCPRP, for which the “shrunken log2 fold change” value was determined as 0.0644.

RRIRRRPPRLPRPRPRPWQPPRP: the “shrunken log2 fold change” value was -0.108.

With RRIRFRPPRLPRPRPRPIEGPRP, the “shrunken log2 fold change” value worked out at 0.0922.

RRIRTRPPRLPRPRPRPMTNPRP: the “shrunken log2 fold change” value was -0.138.

For RRIRTRPPRLPRPRPRPPCSPRP, the “shrunken log2 fold change” value was -0.00786.

Turning to RRIRHRPPRLPRPRPRPCSPPRP, the “shrunken log2 fold change” value is -0.232.

As for RRIRLRPPRLPRPRPRPLPEPRP, the “shrunken log2 fold change” value was found to be 0.39.

Turning to RRIRYRPPRLPRPRPRPDIMPRP, the “shrunken log2 fold change” value was -1.15.

Take RRIRRRPPRLPRPRPRPHYQPRP: the “shrunken log2 fold change” value was -0.319.

Consider RRIRERPPRLPRPRPRPRLAPRP, for which the “shrunken log2 fold change” value came to 0.269.

For RRIRPRPPRLPRPRPRPQWSPRP, the “shrunken log2 fold change” value was -0.226.

Consider RRIRWRPPRLPRPRPRPGHQPRP, for which the “shrunken log2 fold change” value is -0.0269.

In the case of RRIRNRPPRLPRPRPRPGKGPRP, the “shrunken log2 fold change” value was 0.101.

Turning to RRIRVRPPRLPRPRPRPNSDPRP, the “shrunken log2 fold change” value was -0.429.

For the sequence RRIRPRPPRLPRPRPRPRAGPRP, the “shrunken log2 fold change” value came to 0.626.

For the sequence RRIRKRPPRLPRPRPRPTADPRP, the “shrunken log2 fold change” value was 0.345.

Take RRIRKRPPRLPRPRPRPSTYPRP: the “shrunken log2 fold change” value was -0.0529.

As to RRIRFRPPRLPRPRPRPRVCPRP, the “shrunken log2 fold change” value was found to be 0.152.

In the case of RRIRMRPPRLPRPRPRPRESPRP, the “shrunken log2 fold change” value is 0.09.

On to RRIRTRPPRLPRPRPRPYPLPRP, for which the “shrunken log2 fold change” value was 0.0692.

Regarding RRIRTRPPRLPRPRPRPPWKPRP, the “shrunken log2 fold change” value is -0.107.

RRIRWRPPRLPRPRPRPEKFPRP: the “shrunken log2 fold change” value stood at 0.0209.

Regarding RRIRWRPPRLPRPRPRPKCNPRP, the “shrunken log2 fold change” value turned out to be 0.136.

Take RRIRNRPPRLPRPRPRPCHWPRP: the “shrunken log2 fold change” value was determined as 0.065.

Consider RRIRMRPPRLPRPRPRPGQTPRP, for which the “shrunken log2 fold change” value was -0.00931.

Turning to RRIRSRPPRLPRPRPRPYAAPRP, the “shrunken log2 fold change” value is -0.0585.

On to RRIRCRPPRLPRPRPRPGRMPRP, for which the “shrunken log2 fold change” value came out at 0.141.

RRIRLRPPRLPRPRPRPQFEPRP: the “shrunken log2 fold change” value was -0.12.

In the case of RRIRKRPPRLPRPRPRPTFPPRP, the “shrunken log2 fold change” value turned out to be 0.0736.

For the sequence RRIRWRPPRLPRPRPRPAKQPRP, the “shrunken log2 fold change” value is 0.0759.

As for RRIRMRPPRLPRPRPRPVSDPRP, the “shrunken log2 fold change” value came to 2.67.

Take RRIRMRPPRLPRPRPRPSEIPRP: the “shrunken log2 fold change” value is -0.00151.

RRIRARPPRLPRPRPRPSQPPRP: the “shrunken log2 fold change” value is -0.0248.

For RRIRVRPPRLPRPRPRPRHYPRP, the “shrunken log2 fold change” value worked out at 0.645.

Source of the values: the supplement of paper PMC9112550, “Optimization of the antimicrobial peptide Bac7 by deep mutational scanning” (BMC Biology, 2022).
